Experimental data from paper PMC4899112.

Target: VEGF (UniProt P15692)
Assay: native MS

Substance: VEGF (from UniProt P15692-4 1-191) (ligand)
- stoichiometry N: 2
